# In US20230174616A1 (UNIVERSITY OF SOUTHERN CALIFORNIA, published 2023):
# *1 amine or outer side, *2 acyl side, *3 side chain or, on linkers, in order; H or OH if unused. Where no end group is shown, it is not given here. [ ]: non-standard residue; d: D form. Met(35S) = [35S]-methionine label, C[35S]CC[C@H](N[*:1])C(=O)[*:2]; 35S = [35S]-methionine radiolabel; Pra = C#CC[C@H](N)C(=O)O
# T1: hPD-L2* (recombinant glycosylated human PD-L2 ectodomain, L20-T220, expressed in Expi293F cells) (human, UniProt Q9BQ51 20-220, glycosylated; Avi tag biotinylated in vitro with BirA)
# T1 construct: range 20-220
# T1 sequence: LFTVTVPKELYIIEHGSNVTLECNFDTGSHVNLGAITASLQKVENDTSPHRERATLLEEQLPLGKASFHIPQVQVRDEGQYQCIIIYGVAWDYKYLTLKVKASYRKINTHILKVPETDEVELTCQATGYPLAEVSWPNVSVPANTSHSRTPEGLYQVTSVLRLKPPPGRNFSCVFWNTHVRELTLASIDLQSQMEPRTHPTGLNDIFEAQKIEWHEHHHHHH
# Target: T2, mPD-L1 expressed on CHO cells (CHO-mPD-L1) (mouse, UniProt Q9EP73 19-290)
# T2 construct: whole, on cells; The construct in the CHO cells is not described
# Test: flow cytometry competition on CHO-mPD-L1 cells: pre-incubation with the peptide, then Fluorescein-16373; % of median fluorescence intensity [cont.) D]
# Description: Bars represent means±SD, n=3. One-way ANOVA with Dunnett's multiple comparison's test p value <0.05 (*), <0.01 (**), <0.001 (***).
# Cells were then washed three times with cold serum free DMEM. Cells were subsequently processed by flow cytometry with a BD FACSCalibur system using the FL1 channel. FlowJo v10.1 was used to gate to the major population and median FL1 fluorescence reported.
# T2 sequence (Q9EP73 19-290): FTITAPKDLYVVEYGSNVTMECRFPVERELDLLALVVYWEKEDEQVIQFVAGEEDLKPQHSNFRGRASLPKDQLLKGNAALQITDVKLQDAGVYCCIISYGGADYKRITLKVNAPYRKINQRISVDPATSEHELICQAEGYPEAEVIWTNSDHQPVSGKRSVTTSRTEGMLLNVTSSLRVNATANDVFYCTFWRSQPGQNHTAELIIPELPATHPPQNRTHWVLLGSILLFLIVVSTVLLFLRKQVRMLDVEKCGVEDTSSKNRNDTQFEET
row,binding result,Binder
1,no binding (tested: 10 µM),"MPIFLDHILNKFWILHYASG[Pra]-NH2 [SPAM peptide (synthetic, MPIFLDHILNKFWILHYASG-Pra)]"

# Target: T1, hPD-L2* (recombinant glycosylated human …)
# Test: radioactive pull-down of [35S]-labeled SPAM on immobilized target, normalized to hPD-L1 [cont.) D]
row,binding result,Binder
1,no binding,M(35S)PIFLDHILNKFWILHYAGSGSSGHHHHHHSS (Translated in reticulocyte lysate; also called [35S]-SPAM; radiolabeled SPAM peptide) [[35S]-labeled SPAM peptide (in vitro translated)]

# Target: T3, biotinylated hPD-L1 (extracellular domain of human PD-L1, Ala18 to Thr239, expressed in E. coli, … (human, biotin on the epsilon-amino group of the Avi tag lysine (BirA)))
# T3 construct: also called recombinant hPD-L1; non-glycosylated hPD-L1
# Test: ELISA/IP: 100 nM biotinylated hPD-L1 on streptavidin magnetic beads, SPAM 0.1, 1, 10 uM; competitor 100 nM HA-tagged mPD-1 detected with anti-HA-HRP
# Method: For ELISA/IP assays, 20 μL of MyOne™ Streptavidin T1 magnetic beads Dynabeads™ (Thermo Fisher Scientific) were loaded with 100 nM biotinylated hPD-L1 in assay buffer (20 mM HEPES-KOH pH 7.5, 150 mM NaCl, 0.2% (v/v) Tween-20, 1 mg/mL BSA and 50 μg/mL tRNA) at 4° C. […] The samples were then washed and incubated with a 1:5,000 dilution of HRP conjugated anti-HA antibody (Pierce HA Antibody, Rockford. Ill., USA) for 1 h at 4° C. The beads were washed again and developed with TMB Substrate Kit (Thermo Scientific) for 30 minutes and the reactions stopped by adding 100 μL of […] sulfuric acid.
row,IC50,Binder
1,~1100 nM,"MPIFLDHILNKFWILHYASG[Pra]-NH2 [SPAM peptide (synthetic, MPIFLDHILNKFWILHYASG-Pra)]"

# Target: mPD-L1 (extracellular domain of mouse PD-L1, A18 to H239, expressed in E. coli, biotinylated) (mouse, biotin on the epsilon-amino group of the Avi tag lysine)
# Test: radioactive pull-down of [35S]-labeled SPAM on immobilized target, normalized to hPD-L1
# Chain of mPD-L1 (extracellular domain of mouse PD-L1, A18 to H239, expressed in E. coli, biotinylated) (mouse, biotin on the epsilon-amino group of the Avi tag lysine) (chain, as listed by the source limits assumed): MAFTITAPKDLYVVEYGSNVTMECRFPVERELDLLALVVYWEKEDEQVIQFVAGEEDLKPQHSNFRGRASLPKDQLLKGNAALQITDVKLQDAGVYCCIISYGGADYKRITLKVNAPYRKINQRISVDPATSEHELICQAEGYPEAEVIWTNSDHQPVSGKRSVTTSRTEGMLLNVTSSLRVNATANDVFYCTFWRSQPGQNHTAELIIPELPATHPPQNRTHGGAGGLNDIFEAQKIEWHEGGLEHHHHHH
row,binding result,Binder
1,no binding,M(35S)PIFLDHILNKFWILHYAGSGSSGHHHHHHSS (Translated in reticulocyte lysate; also called [35S]-SPAM; radiolabeled SPAM peptide) [[35S]-labeled SPAM peptide (in vitro translated)]

# Target: T3, biotinylated hPD-L1 (extracellular …)
# Test: SPR (Biacore T-100), biotinylated hPD-L1 on SA chip, mPD-1 0.15-29 uM as analyte, 25 C, one-site saturation fit
# Method: SPR analysis was performed on a Biacore T-100 at the USC Nanobiophysics core. […] The response values were fit to a one-site saturation binding model in GraphPad Prism to obtain an equilibrium binding constant.
row,Kd,Binder
1,3200 nM,"mPD-1 (extracellular domain of mouse PD-1, L15 to S157, C83S, HA tag and His tag, expressed in E. coli) (receptor, also called HA-tagged mPD-1; murine variant of PD-1) MALEVPNGPWRSLTFYPAWLTVSEGANATFTCSLSNWSEDLMLNWNRLSPSNQTEKQAAFSNGLSQPVQDARFQIIQLPNRHDFHMNILDTRRNDSGIYLCGAISLHPKAKIEESPGAELVVTERILETSTRYPSGGYPYDVPDYALEHHHHHH"

# Target: T3, biotinylated hPD-L1 (extracellular …)
# Test: radioactive pull-down of [35S]-labeled variant on immobilized hPD-L1, normalized to SPAM
# Method: (§1) The conservation level for each doped residue in the X₁₇ library was obtained from next-generation sequencing data. […] FIG. 3 discloses SEQ ID NO: 180. […] Each measurement was carried out in triplicate and error bars show the standard deviation of the mean. (Students t-test; p value <0.05 (*), <0.01 (**), <0.005 (***)<0.001 (****))
# [³⁵S]-labeled peptides were translated as described above by including 2 μCi labeled methionine (Perkin Elmer) per 10 pmol of template in the translation reaction. Each peptide was tested with a […] (for X₉-library derived peptides) (SEQ ID NO: 11) or a […] (for X17-library derived peptides) (SEQ ID NO: 12) C-terminal sequence. […] The supernatant was removed and was counted. The beads were subsequently washed three times with 1 mL of blocking buffer and the washes were also counted. Finally, the beads were resuspended in 1 mL of blocking buffer and were counted separately. The ratio of the counts remaining on the beads to the total counts added to the binding reaction (the sum of the counts for supernatant, washes, and beads) was calculated to determine the percent bound.
row,binding result,Binder
1,no binding,[Met(35S)]PIFLDHILNKFWILHYGGSGSSGHHHHHHSS [SPAM A18 variant (glycine substituted for alanine at position 18)]

# Target: T3, biotinylated hPD-L1 (extracellular …)
# Test: radioactive pull-down of [35S]-labeled alanine variant on immobilized hPD-L1, normalized to SPAM
# Method: as §1
# [³⁵S]-labeled peptides were translated as described above by including 2 μCi labeled methionine (Perkin Elmer) per 10 pmol of template in the translation reaction. Each peptide was tested with a […] (for X₉-library derived peptides) (SEQ ID NO: 11) or a […] (for X17-library derived peptides) (SEQ ID NO: 12) C-terminal sequence. Binding assays using [35S]-labeled peptide-RNA fusions were similarly performed on hPD-L1 immobilized beads using 75 pmol hPD-L1 immobilized on streptavidin or neutravidin agarose beads (Thermo Fisher scientific) in blocking buffer (20 mM HEPES-KOH pH 7.5, 150 mM NaCl, 0.2% (v/v) Tween-20, 1 mg/mL BSA, 50 μg/mL tRNA and 0.02 mM biotin) at 4° C. for 1 h. The supernatant was removed and was counted.
row,Binder,binding result
1,[Met(35S)]PIFLAHILNKFWILHYAGSGSSGHHHHHHSS (in vitro translated alanine-scan variant) [SPAM D6A variant],no binding
2,[Met(35S)]PIFLDHILNKAWILHYAGSGSSGHHHHHHSS (in vitro translated alanine-scan variant) [SPAM F12A variant],no binding
3,M(35S)PIFLDHILAKFWILHYAGSGSSGHHHHHHSS (in vitro translated alanine-scan variant) [SPAM N10A variant],no binding
4,M(35S)PIFLDHIANKFWILHYAGSGSSGHHHHHHSS (in vitro translated alanine-scan variant) [SPAM L9A variant],binds
5,M(35S)PIFLDHILNKFWIAHYAGSGSSGHHHHHHSS (in vitro translated alanine-scan variant) [SPAM L15A variant],no binding
6,M(35S)PIFLDHALNKFWILHYAGSGSSGHHHHHHSS (in vitro translated alanine-scan variant) [SPAM I8A variant],binds
7,M(35S)PIFADHILNKFWILHYAGSGSSGHHHHHHSS (in vitro translated alanine-scan variant) [SPAM L5A variant],binds
8,M(35S)AIFLDHILNKFWILHYAGSGSSGHHHHHHSS (in vitro translated alanine-scan variant) [SPAM P2A variant],binds
9,M(35S)PAFLDHILNKFWILHYAGSGSSGHHHHHHSS (in vitro translated alanine-scan variant) [SPAM I3A variant],binds
10,[Met(35S)]PIALDHILNKFWILHYAGSGSSGHHHHHHSS (in vitro translated alanine-scan variant) [SPAM F4A variant],binds

# Second part, the binder after the results:
row,binding result,Binder
1,no binding,[Met(35S)]PIFLDHILNKFWALHYAGSGSSGHHHHHHSS (in vitro translated alanine-scan variant) [SPAM I14A variant]
2,no binding,[Met(35S)]PIFLDHILNKFWILAYAGSGSSGHHHHHHSS (in vitro translated alanine-scan variant) [SPAM H16A variant]
3,no binding,[Met(35S)]PIFLDAILNKFWILHYAGSGSSGHHHHHHSS (in vitro translated alanine-scan variant) [SPAM H7A variant]
4,no binding,M(35S)PIFLDHILNAFWILHYAGSGSSGHHHHHHSS (in vitro translated alanine-scan variant) [SPAM K11A variant]
5,no binding,M(35S)PIFLDHILNKFAILHYAGSGSSGHHHHHHSS (in vitro translated alanine-scan variant) [SPAM W13A variant]
